The assay deals with T1, BRCA1-associated protein 1 (BAP1), full-length human (residues 1 to 729) (human, UniProt Q92560 1-729).
T1 sequence: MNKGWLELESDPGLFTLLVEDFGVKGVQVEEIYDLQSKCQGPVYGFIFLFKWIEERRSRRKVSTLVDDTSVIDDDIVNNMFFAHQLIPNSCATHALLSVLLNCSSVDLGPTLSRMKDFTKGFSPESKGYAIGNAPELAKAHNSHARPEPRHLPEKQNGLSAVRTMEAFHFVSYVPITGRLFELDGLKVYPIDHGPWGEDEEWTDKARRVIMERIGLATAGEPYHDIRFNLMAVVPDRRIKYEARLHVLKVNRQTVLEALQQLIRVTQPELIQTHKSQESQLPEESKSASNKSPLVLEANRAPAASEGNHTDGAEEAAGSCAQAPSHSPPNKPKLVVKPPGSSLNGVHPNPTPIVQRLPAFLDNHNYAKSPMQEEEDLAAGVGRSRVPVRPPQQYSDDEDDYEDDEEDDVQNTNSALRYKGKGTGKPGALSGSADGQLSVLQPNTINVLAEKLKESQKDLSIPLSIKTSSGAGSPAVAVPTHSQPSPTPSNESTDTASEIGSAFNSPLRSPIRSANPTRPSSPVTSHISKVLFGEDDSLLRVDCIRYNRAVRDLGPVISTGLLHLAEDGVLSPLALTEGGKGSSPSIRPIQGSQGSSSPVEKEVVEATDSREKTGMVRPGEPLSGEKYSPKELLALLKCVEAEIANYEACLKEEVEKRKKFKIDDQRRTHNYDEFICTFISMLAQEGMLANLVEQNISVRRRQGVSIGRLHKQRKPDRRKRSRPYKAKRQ
Kind of assay: cryo-EM structure.

B1: Deubiquitinase adaptor domain (DEUBAD) of additional sex comb-like 1 (ASXL1), residues 237 to 390 (domain or fragment)
chain: PATGQMKRNRGEEIDFETPGSILVNTNLRALINSRTFHALPSHFQQQLLFLLPEVDRQVGTDGLLRLSSSALNNEFFTHAAQSWRERLADGEFTHEMQVRIRQEMEKEKKVEQWKEKFFEDYYGQKLGLTKEESLQQNVGQEEAEIKSGLCVPG
With B1, the binding result was “binds”.

Values taken from publication PMC10411902 (Science Advances, 2023).
